According to patent US8293494:
Positions count from the first letter of the chain named. Names and notes keep the numbering of the source.

Legend:
[1] = molecular target: histone H3 monomethylated at lysine 9 (core histones or nucleosomes from HeLa cells), P68431
[2] = molecular target: histone H3 trimethylated at lysine 9 (core histones or nucleosomes from HeLa cells), P68431
[3] = molecular target: histone H3 dimethylated at lysine 9 (core histones or nucleosomes from HeLa cells), P68431

B1: recombinant JMJD2C (aa 12-349) (protein)
chain: PSCKIMTFRPSMEEFREFNKYLAYMESKGAHRAGLAKVIPPKEWKPRQCYDDIDNLLIPAPIQQMVTGQSGLFTQYNIQKKAMTVKEFRQLANSGKYCTPRYLDYEDLERKYWKNLTFVAPIYGADINGSIYDEGVDEWNIARLNTVLDVVEEECGISIEGVNTPYLYFGMWKTTFAWHTEDMDLYSINYLHFGEPKSWYAIPPEHGKRLERLAQGFFPSSSQGCDAFLRHKMTLISPSVLKKYGIPFDKITQEAGEFMITFPYGYHAGFNHGFNCAESTNFATVRWIDYGKVAKLCTCRKDMVKISMDIFVRKFQPDRYQLWKQGKDIYTIDHTKPT
in vitro demethylation assay, Western blot with α-monomethyl H3K9 [1]: the methylation status of mono- and dimethyl H3K9 is not altered | in vitro demethylation assay, Western blot with α-trimethyl H3K9 [2]: Recombinant JMJD2C very efficiently demethylates trimethyl H3K9 on both core histones and nucleosomes in vitro | in vitro demethylation assay, Western blot with α-dimethyl H3K9 [3]: the methylation status of mono- and dimethyl H3K9 is not altered

B2: mutant JMJD2C H190A (aa 12-349) (protein)
chain: B1 chain with H179A
in vitro demethylation assay, Western blot with α-trimethyl H3K9 [2]: the enzymatically impaired mutant JMJD2C H190A fails to demethylate
